Source: patent US8394929B2, “Nogo receptor-mediated blockade of axonal growth” (Yale University, priority 2000, dated 2013)
Read-outs that look alike come from different tables or passages of the source.

Tests used:
[1] = test system: CNS myelin induced growth cone collapse; test: Blockade of CNS myelin induced growth cone collapse in chick DRG cultures; type: cell-based
Method: In the growth cone collapse assay, the response to Nogo was measured in the presence of various potential antagonistic peptides. […] This blockade supports the hypothesis that Nogo is a primary inhibitory component of CNS myelin.
To determine the antagonistic activity of Peptide 140 against CNS myelin, the above synthetic peptide was added approximately 10 min before application of CNS myelin. 30 min later, cultures were fixed and growth cone collapse was assessed following staining with rhodamine-phalloidin. For neurite outgrowth assays, plastic chamber slide were coated with 100 μg ml^−1 poly-L-lysine, washed, and dried. 3 μl drops of PBS containing CNS myelin were spotted and dried. Slides were then rinsed and coated with 10 μg ml fs24^−1 laminin before addition of dissociated E12 chick DRGs. Peptide 140, or the scrambled version of Peptide 140, was added at the time of cell plating. Cultures were grown for 5-7 h after which neurite outgrowth was assessed.

[2] = test system: dorsal root ganglion neurons; test: Cell survival in GST-Nogo-treated DRG cultures; type: cell-based, chick
Description: The nanomolar potency is on a par with most known physiologic regulators of axon guidance.

[3] = test system: chick E7 retinal ganglion cells; test: Growth cone collapse in uninfected chick E7 retinal ganglion cells; type: cell-based; settings: neurons lacking the Nogo-66 receptor
Description: Both dorsal root ganglion and retinal neurons from E7 chick embryos were examined. The Nogo responses in the dorsal root ganglion neurons from this developmental stage are weak but slight responses can be detected in some cultures (data not shown).
For some receptor systems, such soluble receptor ligand complexes can block signaling by creating an ineffective interaction. For example, the soluble ectodomain of Trk serves to block neurotrophin signaling and has been extensively used for this purpose (Shelton et al., (1995) J. Neurosci. 15, 477-491). Alternatively, the Nogo-66/NgR-ecto soluble complex may bind to and stimulate the presumed second transmembrane NgR subunit. There is precedence for this type of effect from studies of GDNF family receptors (Cacalano et al., (1998) Neuron 21, 53-62).

[4] = target: T1, mouse NgR (Mus musculus, UniProt Q99PI8); test: AP-fusion protein binding to COS-7 cells expressing mouse NgR
T1 construct: expressed in transfected cells; host or cells: COS-7
T1 sequence (Q99PI8 27-473): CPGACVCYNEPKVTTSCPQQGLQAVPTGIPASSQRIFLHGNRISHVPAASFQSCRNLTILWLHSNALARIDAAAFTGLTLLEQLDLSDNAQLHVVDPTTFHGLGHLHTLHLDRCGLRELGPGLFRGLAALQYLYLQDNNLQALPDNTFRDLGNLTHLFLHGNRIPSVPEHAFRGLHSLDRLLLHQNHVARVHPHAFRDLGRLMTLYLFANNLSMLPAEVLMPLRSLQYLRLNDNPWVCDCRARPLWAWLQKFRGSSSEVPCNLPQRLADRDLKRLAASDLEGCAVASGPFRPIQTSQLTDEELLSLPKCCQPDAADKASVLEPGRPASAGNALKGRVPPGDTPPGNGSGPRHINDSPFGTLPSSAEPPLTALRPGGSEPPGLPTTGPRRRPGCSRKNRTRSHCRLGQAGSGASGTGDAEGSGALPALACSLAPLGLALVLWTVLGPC
Method: To determine if AP-fused deletion mutants of Nogo-66 bind mouse NgR (“mNgR”), COS-7 cells were transfected with a plasmid encoding the mouse NgR sequence ligated into pcDNA3.1. 48 hours after transfection, cells were washed with HBH (Hanks balanced salt solution containing 20 mM sodium Hepes, pH 7.05, and 1 mg ml^−1 bovine serum albumin) and then incubated with condition medium containing one of the AP-fusion proteins described above for 2 hours at 37° C. Cells were then washed, fixed, and left in HBH at 67° C. for 14-16 h to inactivate endogenous AP. AP-fusion protein binding to NgR expressing COS-7 cells was detected with the substrates NBT and BCIP (FIG. 13b).
(§1) To determine whether mNgR or mNgR deletion mutants bound to hNogo-A (1055-1120), wtNgR or mNgR deletion mutants were transfected into COS-7 cells. Forty-eight hours after the transfection, the transfected COS-7 cells were washed with hanks balanced salt solution containing 20 mM sodium HEPES, pH 7.05, and 1 mg/ml bovine serum albumin (BSA) [hereinafter “HBH”]. Cells were then incubated for 2 hours at 23° C. with a conditioned medium enriched with purified AP-hNogo-A (1055-1120) diluted in HBH. AP-fusion protein was detected as previously described for AP-Sema3A (Takahashi et al., Nature Neurosci. 1:487-493, 1998).

[5] = target: T2, NgRΔCT (Mus musculus, UniProt Q99PI8); test: AP-hNogo-A (1055-1120) binding to COS-7 cells transfected with NgRΔCT
T2 construct: encodes residues 26 to 305 and 443 to473 of mNgR; vector secretion signal (pSecTag2) (N); 6xHis (C); expressed in transfected cells; host or cells: COS-7
T2 sequence (Q99PI8 with tags, fused parts or gaps): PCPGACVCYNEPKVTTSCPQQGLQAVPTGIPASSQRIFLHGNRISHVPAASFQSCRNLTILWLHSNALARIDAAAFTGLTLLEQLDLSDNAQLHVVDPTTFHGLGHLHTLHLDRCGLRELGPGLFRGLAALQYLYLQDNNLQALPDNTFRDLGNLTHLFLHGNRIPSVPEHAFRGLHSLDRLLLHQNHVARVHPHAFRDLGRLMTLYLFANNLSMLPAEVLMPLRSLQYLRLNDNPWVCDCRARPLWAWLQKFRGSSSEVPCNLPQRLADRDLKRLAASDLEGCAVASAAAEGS
Description: The NgRΔCT contruct encodes residues 26 to 305 and 443 to473 of mNgR, thereby including the LRR and GPI regions of mNgR. Primers MycNgR ([…]) and 2NgRt313 ([…]) were used to amplify a sequence from the wtNgR-pSecTag2Hygro plasmid. Primers TM/GPI5 (5′-[…]-3′) and NgR3X (above) were used to amplify a sequence from the wtNgR-pSecTag2Hygro plasmid. The amplified sequences were ligated together at the NotI site and then ligated into the BamHI/XhoI sites of pSecTag2.
as §1

With “Peptide 140: synthetic peptide of amino acids #1055-1094 of the human NogoA protein, acetylated and amidated at the termini (Ac-RIYKGVIQAIQKSDEGHPFRAYLESEVAISEELVQKYSNS-NH2; UniProt Q9NQC3 1055-1094, looked up, fragment)” the “blockade of CNS myelin induced growth cone collapse (in words)” value ([1]; high doses / higher concentrations of CNS myelin) was “had no effect on inhibitory activity” and the “blockade of CNS myelin induced growth cone collapse (in words)” value ([1]; low dose / lowest concentrations of CNS myelin) was “reduces myelin induced growth cone collapse to control levels”.

B1: GST-Nogo: GST fusion protein of the 66 amino acid lumenal-extracellular fragment of Nogo-A, expressed in E. coli (protein)
chain: RIYKGVIQAIQKSDEGHPFRAYLESEVAISEELVQKYSNSALGHVNCTIKELRRLFLVDDLVDSLK
modifications: also: GST fusion protein
notes: GST fusion protein of the 66 amino acid lumenal-extracellular fragment of Nogo-A, expressed in E. coli
With B1 the “number of neurofilament-positive adherent cells” value [2] was 137±24 % of GST-treated cultures, the “apoptotic nuclei identified by DAPI staining” value ([2]; GST-Nogo-treated specimens) was 5.2±1.1% and the “growth cone collapse (in words)” value [3] was “uniformly insensitive”.

B2: AP-Nogo: fusion protein of His6 tag, placental alkaline phosphatase (AP) and the 66 amino acid active domain of Nogo (protein)
chain: HHHHHHIIPVEEENPDFWNREAAEALGAAKKLQPAQTAAKNLIIFLGDGMGVSTVTAARILKGQKKDKLGPEIPLAMDRFPYVALSKTYNVDKHVPDSGATATAYLCGVKGNFQTIGLSAAARFNQCNTTRGNEVISVMNRAKKAGKSVGVVTTTRVQHASPAGTYAHTVNRNWYSDADVPASARQEGCQDIATQLISNMDIDVILGGGRKYMFRMGTPDPEYPDDYSQGGTRLDGKNLVQEWLAKRQGARYVWNRTELMQASLDPSVTHLMGLFEPGDMKYEIHRDSTLDPSLMEMTEAALRLLSRNPRGFFLFVEGGRIDHGHHESRAYRALTETIMFDDAIERAGQLTSEEDTLSLVTADHSHVFSFGGYPLRGSSIFGLAPGKARDRKAYTVLLYGNGPGYVLKDGARPDVTESESGSPEYRQQSAVPLDEETHAGEDVAVFARGPQAHLVHGVQEQTFIAHVMAFAACLEPYTACDLAPPAGTTDAAHPGRIYKGVIQAIQKSDEGHPFRAYLESEVAISEELVQKYSNSALGHVNCTIKELRRLFLVDDLVDSLK
B2 was tested, and the “binding to NgR expressing COS-7 cells (in words)” value [4] was “selective binding”, the “binding to NgR expressing COS-7 cells (in words)” value ([4]; listed as AP-hNogo-A (1055-1120)) was “bound” and the “binding (in words)” value [5] was “bound”.
